According to paper PMC4149788 (The Febs Journal, 2014):

Target: GST-HAUSP (human, UniProt Q93009 1-1102)
Assay: pull-down

Sequence of GST-HAUSP (Q93009 whole entry): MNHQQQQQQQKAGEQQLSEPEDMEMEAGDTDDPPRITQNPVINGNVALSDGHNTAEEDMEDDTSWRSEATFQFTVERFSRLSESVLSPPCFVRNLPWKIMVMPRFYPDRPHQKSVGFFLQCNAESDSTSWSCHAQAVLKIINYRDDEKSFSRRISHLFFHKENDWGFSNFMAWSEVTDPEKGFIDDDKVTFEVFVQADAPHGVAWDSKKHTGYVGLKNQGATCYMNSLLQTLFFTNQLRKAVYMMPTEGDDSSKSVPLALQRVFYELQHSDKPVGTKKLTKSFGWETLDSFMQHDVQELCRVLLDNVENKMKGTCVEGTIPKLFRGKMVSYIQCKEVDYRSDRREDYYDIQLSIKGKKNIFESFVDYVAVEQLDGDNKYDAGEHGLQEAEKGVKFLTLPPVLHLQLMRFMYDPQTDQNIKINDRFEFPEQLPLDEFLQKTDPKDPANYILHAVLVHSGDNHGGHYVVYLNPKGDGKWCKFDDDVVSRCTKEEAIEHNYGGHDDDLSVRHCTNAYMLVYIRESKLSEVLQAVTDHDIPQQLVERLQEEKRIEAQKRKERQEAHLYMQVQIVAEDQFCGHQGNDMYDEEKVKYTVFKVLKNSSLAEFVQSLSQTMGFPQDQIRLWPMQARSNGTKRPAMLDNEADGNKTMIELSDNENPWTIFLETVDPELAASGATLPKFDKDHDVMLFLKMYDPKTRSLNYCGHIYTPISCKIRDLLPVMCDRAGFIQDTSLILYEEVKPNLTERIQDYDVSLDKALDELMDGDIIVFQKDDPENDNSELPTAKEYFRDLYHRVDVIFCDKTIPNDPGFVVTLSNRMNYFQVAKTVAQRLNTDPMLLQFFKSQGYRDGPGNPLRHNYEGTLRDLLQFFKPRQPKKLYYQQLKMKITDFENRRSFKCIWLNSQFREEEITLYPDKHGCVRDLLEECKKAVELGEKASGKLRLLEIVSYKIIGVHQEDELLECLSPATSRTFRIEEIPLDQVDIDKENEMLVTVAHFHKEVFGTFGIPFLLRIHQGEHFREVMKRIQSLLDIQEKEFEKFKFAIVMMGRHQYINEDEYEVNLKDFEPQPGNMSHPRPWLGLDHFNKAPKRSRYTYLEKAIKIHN

- binding result: binds
B1: Myc/His-Rb (Rb in pcDNA3.1-Myc/His B(-)) (natural protein, human, UniProt P06400 1-928, looked up)
chain: MPPKTPRKTAATAAAAAAEPPAPPPPPPPEEDPEQDSGPEDLPLVRLEFEETEEPDFTALCQKLKIPDHVRERAWLTWEKVSSVDGVLGGYIQKKKELWGICIFIAAVDLDEMSFTFTELQKNIEISVHKFFNLLKEIDTSTKVDNAMSRLLKKYDVLFALFSKLERTCELIYLTQPSSSISTEINSALVLKVSWITFLLAKGEVLQMEDDLVISFQLMLCVLDYFIKLSPPMLLKEPYKTAVIPINGSPRTPRRGQNRSARIAKQLENDTRIIEVLCKEHECNIDEVKNVYFKNFIPFMNSLGLVTSNGLPEVENLSKRYEEIYLKNKDLDARLFLDHDKTLQTDSIDSFETQRTPRKSNLDEEVNVIPPHTPVRTVMNTIQQLMMILNSASDQPSENLISYFNNCTVNPKESILKRVKDIGYIFKEKFAKAVGQGCVEIGSQRYKLGVRLYYRVMESMLKSEEERLSIQNFSKLLNDNIFHMSLLACALEVVMATYSRSTSQNLDSGTDLSFPWILNVLNLKAFDFYKVIESFIKAEGNLTREMIKHLERCEHRIMESLAWLSDSPLFDLIKQSKDREGPTDHLESACPLNLPLQNNHTAADMYLSPVRSPKKKGSTTRVNSTANAETQATSAFQTQKPLKSTSLSLFYKKVYRLAYLRLNTLCERLLSEHPELEHIIWTLFQHTLQNEYELMRDRHLDQIMMCSMYGICKVKNIDLKFKIIVTAYKDLPHAVQETFKRVLIKEEEYDSIIVFYNSVFMQRLKTNILQYASTRPPTLSPIPHIPRSPYKFPSSPLRIPGGNIYISPLKSPYKISEGLPTPTKMTPRSRILVSIGESFGTSEKFQKINQMVCNSDRVLKRSAEGSNPPKPLKKLRFDIEGSDEADGSKHLPGESKFQQKLAEMTSTRTRMQKQKMNDSMDTSNKEEK
